Experimental data reported in PMC12150756 (Infection and Immunity, 2025).
Positions count from the first letter of the chain named.

B1: sdAb1, anti-PfCSP camelid single-domain antibody (VHH)
VHH: QVQLQESGGGLVQAGGSLRLSCAASGRTFSSYSMGWFRLVPGKEREFVARISSSGGNTYYADSVRGRFTISRDNAKNTVYLQMNSLKPEDTAVYYCAADLLQFGRSSRAADYDYWGQGTQVTVSS
notes: from the library of the alpaca Attitude (immunized with PfCSPFL); Expressed from pMECS-GG; Same VHH family as sdAb9; source: E. coli WK6, periplasmic extract, purified (Ni-NTA, SEC); crude bacterial extract for the screening ELISA
B2: sdAb9, anti-PfCSP camelid single-domain antibody (VHH)
VHH: B1 VHH with L39Q, S52T, Y59D, V64A, R65K, N84S, S85T, L101W, F103Y, S106N
notes: from the library of the alpaca Attitude (immunized with PfCSPFL); Expressed from pMECS-GG; Same VHH family as sdAb1; source: E. coli WK6, periplasmic extract, purified (Ni-NTA, SEC); crude bacterial extract for the screening ELISA
B3: sdAb3 (VHH)
VHH: QVQLQESGGGLVQAGGSLRLSCAASGRTFTEYSMGWFRQAPGKEREFVARISWSGGSTYYADSVKGRFTISRDNAENTVYLQMTSLKPEDTAVYYCAADQLQFGRNSRAADYDDWGQGTQVTVSS
B4: sdAb7 (VHH)
VHH: B1 VHH with L11V, A14T, G26V, S31N, S33A, M34L, L39Q, V40A
B5: sdAb18 (VHH)
VHH: QVQLQESGGGLVQPGGSLNLSCTAGVSLDYYAIGWFRQAPGKEREFVARISSSGGNTYYADSVRGRFTISRDNAKNTVYLQMNSLKPEDTAVYYCAADLLQFGRSSRAADYDYWGQGTQVTVSS
B6: sdAb2 (VHH)
VHH: QVQLQESGGGLVQFGGSLRLSCAASGFTFSSANMSWVRQAPGKGLEWVSTISPGGGTTSYAGSVKGRFTISRDNAKNTLYLQMNALKPEDTAVYYCATGGPSSQESVYRGQGTQVTVSS
B7: sdAb4 (VHH)
VHH: QVQLQESGGGLVQVGGSLRLSCAASGRTFSSYTMAWFRQAPGKEREFVAAISRSGSNTYYADSVKGRFTISRDNAKNTVYLQMSSLYPEDTAVYTCAARDAILLLTTTHYDYWGQGTQVTVSS
B8: sdAb5 (VHH)
VHH: QVQLQESGGGLVQAGGSLRLSCAASGRTFGSYVMGWFRQAPGKEREFVAAISRSGGTTYYADSVKGRFAISRDNAKNTVFLQMNSLKPEDTAVYYCAATTTISMLVVLTTTPKYDYWGQGTQVTVSS
B9: sdAb6 (VHH)
VHH: QVQLQESGGGLVQAGGSLRVSCVGSGRAFSRYSMGWFRQFPGKEREFVACISSSGGAIDYADSVKGRFTISRDNAKNAVYLQMNSLKPDDTAVYYCAADQFRISTVPMGVIDYWGQGTQVTVSS
B10: sdAb8 (VHH)
VHH: QVQLQESGGGLVQAGGSLRLSCAASGRTVSSYTMGWFRQAPGKERSFVAASLRSGGSTYYSDSVKGRFTISRDNAKNTVYLQMNSLRPEDTAVYYCAADEQLAYNINYNYRNYDYWGQGTQVTVSS
B11: sdAb10 (VHH)
VHH: QVQLQESGGGLVQPGGSLRLSCAASGRTFSSYTMGWFRQAPGKERELVAAISRSGLNTDYADSVKGRFTISRDNAKNTVYLQMNTLKPEDTAVYYCAARSTIRLLTDPSYDYWGQGTQVTVSS
B12: sdAb15 (VHH)
VHH: QVQLQESGGGLVQAGGSLRLSCVATGRPFDDYTVAWFRQAPGKERDFVAAISRSGVSTYYQDDVKGRFTISRDNARNTAYLSMNSLKPEDTAVYYCAARSTIRLLTDPSYDYWGQGTQVTVSS

target: T1, full-length CSP from P. falciparum 3D7 on the surface of transgenic P. berghei ANKA sporozoites (PfCSP-PbSPZs) (P. falciparum 3D7, UniProt Q7K740); assay: flow cytometry on cells; salivary gland PfCSP-PbSPZs (15- and 22-day-old), formaldehyde-fixed; sdAb incubated at ambient temperature; detected with anti-HA Alexa Fluor 647; MFI; details: one partner purified
T1 construct: Full-length circumsporozoite protein of P. falciparum 3D7, expressed on transgenic P. berghei ANKA sporozoites; The same protein on midgut (MG) and salivary gland (SG) sporozoites; the assays tell them apart; also called PfCSP on MG SPZs; PfCSP on SG SPZs; source: transgenic P. berghei ANKA sporozoites isolated from midguts or salivary glands of Anopheles stephensi
T1 sequence (Q7K740 19-374): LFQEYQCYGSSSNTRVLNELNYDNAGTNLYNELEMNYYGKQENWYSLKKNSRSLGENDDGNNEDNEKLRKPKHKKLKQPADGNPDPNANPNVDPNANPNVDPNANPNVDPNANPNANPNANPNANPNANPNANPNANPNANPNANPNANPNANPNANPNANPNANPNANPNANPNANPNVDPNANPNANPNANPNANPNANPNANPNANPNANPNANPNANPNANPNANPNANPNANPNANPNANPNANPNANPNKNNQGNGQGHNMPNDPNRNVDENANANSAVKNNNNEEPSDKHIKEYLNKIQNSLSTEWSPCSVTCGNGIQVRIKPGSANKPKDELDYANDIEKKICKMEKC

Binder | binding result
B1 | binds
B2 | binds

target: T2, PfCSPC, C-terminal αTSR domain of P. falciparum NF54 circumsporozoite protein (E310-S384) (P. falciparum NF54, UniProt P19597); assay: crystal structure; sdAb:PfCSPC complex prepared at 1.2:1, purified by SEC in 20 mM Tris-HCl, 150 mM NaCl, pH 7.5; sitting drop at 20°C; tags retained; data to ~2.1 Å; details: both partners purified
T2 construct: C-terminal domain (αTSR) of circumsporozoite protein of P. falciparum NF54, UniProt P19597, residues E310-S384; source: E. coli SHuffle T7 Express, purified (IMAC, SEC); not shown: TEV cleavage site (…), C-terminal, kept; His6, C-terminal, kept
T2 sequence (P19597 310-384): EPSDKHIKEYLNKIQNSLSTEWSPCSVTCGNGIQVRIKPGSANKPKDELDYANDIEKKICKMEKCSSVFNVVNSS

Binder | binding result
B1 | binds
B2 | binds

target: T2, PfCSPC, C-terminal αTSR domain of P. …; assay: not given; details: not given

Binder | binding result
B3 | binds
B4 | binds
B5 | binds
B6 | binds
B7 | binds
B8 | binds
B9 | binds
B10 | binds
B11 | binds
B12 | binds

target: T3, PfCSPFL, recombinant full-length P. falciparum NF54 circumsporozoite protein devoid of signal peptide and GPI … (P. falciparum NF54, UniProt P19597); assay: not given; details: not given
T3 sequence (P19597 20-384): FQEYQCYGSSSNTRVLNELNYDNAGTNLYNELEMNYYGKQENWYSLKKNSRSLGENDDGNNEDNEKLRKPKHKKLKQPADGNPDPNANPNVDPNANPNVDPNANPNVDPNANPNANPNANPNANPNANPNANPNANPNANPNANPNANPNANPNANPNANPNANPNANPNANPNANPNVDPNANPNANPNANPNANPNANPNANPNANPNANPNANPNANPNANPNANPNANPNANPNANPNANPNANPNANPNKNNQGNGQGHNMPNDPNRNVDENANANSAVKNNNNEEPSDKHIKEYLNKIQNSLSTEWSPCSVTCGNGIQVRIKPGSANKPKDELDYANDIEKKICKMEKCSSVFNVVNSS

Binder | binding result
B3 | binds
B4 | binds
B5 | binds
B6 | binds
B7 | binds
B8 | binds
B9 | binds
B10 | binds
B11 | binds
B12 | binds

target: PbCSPFL, recombinant full-length P. berghei ANKA circumsporozoite protein devoid of signal peptide and GPI … (Plasmodium berghei ANKA, UniProt P23093); assay: ELISA; antigen coated at 1 µg/mL on Maxisorb plates, blocked with 5% milk in PBS; purified sdAb at 1 µg/mL, 1 h at room temperature, triplicates; detected with anti-HA mAb and anti-mouse-HRP; details: both partners purified

Binder | binding result
B1 | no binding (tested: 1 µg/mL sdAb)
B2 | no binding (tested: 1 µg/mL sdAb)

target: T3, PfCSPFL, recombinant full-length P. …; assay: as above; details: both partners purified

Binder | binding result
B1 | binds
B2 | binds
